Laboratory results published in the Human Domainome abundance scans (Beltran et al. 2025).

B1: POU domain, class 5, transcription factor 1, residues 134 to 212; numbered along this chain, Q01860 (parent)
chain: EESQDIKALQKELEQFAKLLKQKRITLGYTQADVGLTLGVLFGKVFSQTTICRFEALQLSFKNMCKLRPLLQKWVEEAD
B2: Histone-lysine N-methyltransferase SETD2, residues 2382 to 2430; numbered along this chain, Q9BYW2 (parent)
chain: SPPKPKTIVLPPNWKTARDPEGKIYYYHVITRQTQWDPPTWESPGDDAS

Variants of: B1
Test: abundance fitness (aPCA) (normalised: wild type 0, dead -1); higher = more abundant; growth selection in yeast, the domain comes from the species named
Settings: Homo sapiens

Abundance fitness, by site and new letter:
M64: G -0.621, K -0.279, L -0.333, N -0.608, P -0.604, Q -0.802, R -0.871, T -0.496, V -0.675, W -0.667, Y -1.06
C65: A -0.381, D 0.155, G -0.691, I 0.246, K -0.271, L 0.14, M -0.04, N -0.343, Q 0.074, R -0.18, S -0.393, T -0.403, V -0.178, W -0.289, Y -0.449
K66: A -0.011, D -0.477, F 0.04, G -0.185, M 0.113, N 0.209, P -0.51, Q -0.051, R -0.01, S 0.003, T -0.187, V -0.365
L67: A -0.612, C -0.363, E -0.289, M -0.052, N 0.553, Q -0.756, R -0.575, S -0.608, T -0.494, W -0.851
R68: A -0.265, D -0.621, E -0.421, G -0.797, K -0.154, L -0.222, P -0.734, Q -0.384, S -0.535, T -0.436, V -0.609, W 0, Y 0.356
P69: A -0.252, F -0.473, G -0.085, H -0.208, K -0.304, L -0.351, M -0.662, N -0.008, Q -0.618, R -0.613, T -0.652, V -0.414, W -0.999
L70: C -0.171, F 0.145, G -0.574, P -0.364, Q 0.143, R -0.653, T -0.325, V -0.406, W -0.442, Y 0.262
L71: A -0.51, C -0.474, D -0.869, E -0.344, F -0.562, H -0.207, M -0.251, P -0.07, Q -0.658, R -0.509, S -0.911, T -0.246, V -0.728, W -0.323, Y -0.435
Q72: A -0.354, C -0.09, D -0.379, E 0.342, G -0.302, H -0.039, I -0.119, K -0.025, L -0.323, M -0.31, P -0.438, R -0.309, S -0.371, T -0.36, V -0.337, W -0.837, Y -0.582
K73: A -0.131, C -0.397, E -0.595, F -0.566, G -0.386, H -0.349, I -0.448, L -0.289, M -0.799, P -0.506, Q -0.1, S -0.659, T -0.083, W -0.474, Y -0.595
W74: D -0.447, E -0.138, F -0.131, G -0.158, R -0.734, V -0.264
V75: A -0.815, C -0.343, D -0.413, E -0.353, G -0.645, H -0.025, I 0.056, K -0.056, M -0.293, P -0.203, Q -0.206, R -0.661, S -0.106, T -0.299, W -0.802
E76: A -0.139, C -0.066, D 0.003, F -0.155, G -0.644, H -0.032, K -0.133, L -0.368, M -0.017, P -0.892, Q -0.173, R -0.315, S -0.188, V -0.434, W -0.425
E77: A -0.124, D -0.107, G -0.124, H 0.144, I -0.079, K -0.074, L -0.124, M 0.037, N 0.718, P -0.264, Q 0.184, R -0.108, T -0.129, V -0.161, W 0.226, Y 0.096
A78: C -0.36, E -0.06, G -0.304, I 0.292, M -0.033, P -0.549, Q 0.053, R -0.289, S -0.13, T -0.014, V 0.216
D79: A -0.741, C -0.509, E -0.067, G -0.312, P 0.393, R -0.187, S -0.374, T -0.122, V 0.111, Y -0.505

Variants of: B2
Test: as above
Settings: Homo sapiens

Abundance fitness, by site and new letter:
S1: A -0.597, C 0.007, E -0.534, F 0.246, N 0.442, V -0.252, Y -0.521
P2: A 0.131, E -0.224, F 0.031, G 0.045, H 0.314, I 0.712, K -0.087, L 0.317, M 0.026, N 0.461, Q -0.007, R -0.118, S 0.237, T 0.178, V -0.065, W -0.293, Y 0.539
P3: A -0.191, C -0.508, D 0.371, E 0.408, F 0.197, G 0.129, H 0.126, I 0.115, K 0.325, L 0.105, M 0.369, N 0.585, Q 0.262, R 0.274, S 0.281, T 0.155, V 0.444, W 0.064, Y 0.335
K4: A -0.836, C -0.564, D -0.927, E -0.908, F -0.41, G -0.97, H -0.221, I -0.154, L -0.293, M -0.051, N -0.144, P -0.386, Q -0.541, R -0.532, S 0.007, T -0.275, V -0.573, W -0.798, Y -0.046
P5: A 0.102, C -0.396, D 0.133, E 0.057, F 0.133, G 0.118, H -0.17, I 0.077, K 0.159, L 0.125, M 0.199, N 0.294, Q 0.007, R -0.006, S 0.163, T 0.211, V 0.162, W -0.63, Y -0.066
K6: A -0.032, C -0.303, D -0.074, E -0.19, F -0.121, G 0.037, I -0.037, L -0.339, M 0.018, N 0.018, P -0.35, Q 0.07, R -0.046, S 0.103, T -0.148, W -0.393, Y -0.227
T7: A 0.028, C -0.062, D -0.134, E -0.045, F 0.278, G 0.138, H 0.116, I -0.212, L -0.214, M 0.026, N 0.127, P -0.375, Q 0.013, R 0.094, S 0.105, V -0.148, W -0.462, Y -0.155
I8: A -0.1, C 0.105, D -0.164, E -0.096, F -0.021, G 0.037, K 0.03, L 0.165, M 0.179, N 0.112, P -0.282, Q -0.056, R 0.06, T 0.021
